Laboratory results taken from the supplement of paper PMC11316812.
± gives the standard deviation of the averaged measurements.

Assays:
MCF7 = test: percentage of EdU-negative (G0-arrested) nuclei per well, 72 h; higher = more G0 arrest; conditions: reference: sequence is the full UniProt precursor, the tested protein was the secreted form or ectodomain
hTERT-HMEC = test: as above; conditions: reference: sequence is the full UniProt precursor, the tested protein was the secreted form or ectodomain
[1] = protein concentration 0.0225 µM
[2] = protein concentration 0.03125 µM
[3] = protein concentration 0.3125 µM
[4] = protein concentration 0.01375 µM
[5] = protein concentration 0.1375 µM
[6] = protein concentration 0.00828571 µM
[7] = protein concentration 0.0828571 µM
[8] = protein concentration 0.02588 µM
[9] = protein concentration 0.2588 µM
[10] = protein concentration 0.0284075 µM
[11] = protein concentration 0.284075 µM
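Also: secreted proteins added to cultured cells, EdU pulse at the end, nuclei found by Hoechst imaging, EdU status from nuclear versus surrounding ring intensity ratio, PBS as neutral control.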

Substance: MMSFVQKGSWLLLALLHPTIILAQQEAVEGGCSHLGQSYADRDVWKPEPCQICVCDSGSVLCDDIICDDQELDCPNPEIPFGECCAVCPQPPTAPTRPPNGQGPQGPKGDPGPPGIPGRNGDPGIPGQPGSPGSPGPPGICESCPTGPQNYSPQYDSYDVKSGVAVGGLAGYPGPAGPPGPPGPPGTSGHPGSPGSPGYQGPPGEPGQAGPSGPPGPPGAIGPSGPAGKDGESGRPGRPGERGLPGPPGIKGPAGIPGFPGMKGHRGFDGRNGEKGETGAPGLKGENGLPGENGAPGPMGPRGAPGERGRPGLPGAAGARGNDGARGSDGQPGPPGPPGTAGFPGSPGAKGEVGPAGSPGSNGAPGQRGEPGPQGHAGAQGPPGPPGINGSPGGKGEMGPAGIPGAPGLMGARGPPGPAGANGAPGLRGGAGEPGKNGAKGEPGPRGERGEAGIPGVPGAKGEDGKDGSPGEPGANGLPGAAGERGAPGFRGPAGPNGIPGEKGPAGERGAPGPAGPRGAAGEPGRDGVPGGPGMRGMPGSPGGPGSDGKPGPPGSQGESGRPGPPGPSGPRGQPGVMGFPGPKGNDGAPGKNGERGGPGGPGPQGPPGKNGETGPQGPPGPTGPGGDKGDTGPPGPQGLQGLPGTGGPPGENGKPGEPGPKGDAGAPGAPGGKGDAGAPGERGPPGLAGAPGLRGGAGPPGPEGGKGAAGPPGPPGAAGTPGLQGMPGERGGLGSPGPKGDKGEPGGPGADGVPGKDGPRGPTGPIGPPGPAGQPGDKGEGGAPGLPGIAGPRGSPGERGETGPPGPAGFPGAPGQNGEPGGKGERGAPGEKGEGGPPGVAGPPGGSGPAGPPGPQGVKGERGSPGGPGAAGFPGARGLPGPPGSNGNPGPPGPSGSPGKDGPPGPAGNTGAPGSPGVSGPKGDAGQPGEKGSPGAQGPPGAPGPLGIAGITGARGLAGPPGMPGPRGSPGPQGVKGESGKPGANGLSGERGPPGPQGLPGLAGTAGEPGRDGNPGSDGLPGRDGSPGGKGDRGENGSPGAPGAPGHPGPPGPVGPAGKSGDRGESGPAGPAGAPGPAGSRGAPGPQGPRGDKGETGERGAAGIKGHRGFPGNPGAPGSPGPAGQQGAIGSPGPAGPRGPVGPSGPPGKDGTSGHPGPIGPPGPRGNRGERGSEGSPGHPGQPGPPGPPGAPGPCCGGVGAAAIAGIGGEKAGGFAPYYGDEPMDFKINTDEIMTSLKSVNGQIESLISPDGSRKNPARNCRDLKFCHPELKSGEYWVDPNQGCKLDAIKVFCNMETGETCISANPLNVPRKHWWTDSSAEKKHVWFGESMDGGFQFSYGNPELPEDVLDVHLAFLRLLSSRASQNITYHCKNSIAYMDQASGNVKKALKLMGSNEGEFKAEGNSKFTYTVLEDGCTKHTGEWSKTVFEYRTRKAVRLPIVDIAPYDIGGPDQEFGVDVGPVCFL
- percentage of EdU-negative (MCF7; [1]): 26.55 ± 0.19%
- percentage of EdU-negative (MCF7; protein concentration 0.225 µM): 27.4 ± 1.2%
- percentage of EdU-negative (hTERT-HMEC; [1]): 4.96 ± 0.66%
- percentage of EdU-negative (hTERT-HMEC; protein concentration 0.225 µM): 6.99 ± 0.87%

Substance: MGIELLCLFFLFLGRNDHVQGGCALGGAETCEDCLLIGPQCAWCAQENFTHPSGVGERCDTPANLLAKGCQLNFIENPVSQVEILKNKPLSVGRQKNSSDIVQIAPQSLILKLRPGGAQTLQVHVRQTEDYPVDLYYLMDLSASMDDDLNTIKELGSRLSKEMSKLTSNFRLGFGSFVEKPVSPFVKTTPEEIANPCSSIPYFCLPTFGFKHILPLTNDAERFNEIVKNQKISANIDTPEGGFDAIMQAAVCKEKIGWRNDSLHLLVFVSDADSHFGMDSKLAGIVIPNDGLCHLDSKNEYSMSTVLEYPTIGQLIDKLVQNNVLLIFAVTQEQVHLYENYAKLIPGATVGLLQKDSGNILQLIISAYEELRSEVELEVLGDTEGLNLSFTAICNNGTLFQHQKKCSHMKVGDTASFSVTVNIPHCERRSRHIIIKPVGLGDALELLVSPECNCDCQKEVEVNSSKCHHGNGSFQCGVCACHPGHMGPRCECGEDMLSTDSCKEAPDHPSCSGRGDCYCGQCICHLSPYGNIYGPYCQCDNFSCVRHKGLLCGGNGDCDCGECVCRSGWTGEYCNCTTSTDSCVSEDGVLCSGRGDCVCGKCVCTNPGASGPTCERCPTCGDPCNSKRSCIECHLSAAGQAREECVDKCKLAGATISEEEDFSKDGSVSCSLQGENECLITFLITTDNEGKTIIHSINEKDCPKPPNIPMIMLGVSLAILLIGVVLLCIWKLLVSFHDRKEVAKFEAERSKAKWQTGTNPLYRGSTSTFKNVTYKHREKQKVDLSTDC
- percentage of EdU-negative (MCF7; [1]): 23.6 ± 0.48%
- percentage of EdU-negative (MCF7; protein concentration 0.225 µM): 28 ± 1.7%
- percentage of EdU-negative (hTERT-HMEC; [1]): 5.434 ± 0.051%
- percentage of EdU-negative (hTERT-HMEC; protein concentration 0.225 µM): 6.34 ± 1.4%

Substance: MKENVASATVFTLLLFLNTCLLNGQLPPGKPEIFKCRSPNKETFTCWWRPGTDGGLPTNYSLTYHREGETLMHECPDYITGGPNSCHFGKQYTSMWRTYIMMVNATNQMGSSFSDELYVDVTYIVQPDPPLELAVEVKQPEDRKPYLWIKWSPPTLIDLKTGWFTLLYEIRLKPEKAAEWEIHFAGQQTEFKILSLHPGQKYLVQVRCKPDHGYWSAWSPATFIQIPSDFTMNDTTVWISVAVLSAVICLIIVWAVALKGYSMVTCIFPPVPGPKIKGFDAHLLEKGKSEELLSALGCQDFPPTSDYEDLLVEYLEVDDSEDQHLMSVHSKEHPSQGMKPTYLDPDTDSGRGSCDSPSLLSEKCEEPQANPSTFYDPEVIEKPENPETTHTWDPQCISMEGKIPYFHAGGSKCSTWPLPQPSQHNPRSSYHNITDVCELAVGPAGAPATLLNEAGKDALKSSQTIKSREEGKATQQREVESFHSETDQDTPWLLPQEKTPFGSAKPLDYVEIHKVNKDGALSLLPKQRENSGKPKKPGTPENNKEYAKVSGVMDNNILVLVPDPHAKNVACFEESAKEAPPSLEQNQAEKALANFTATSSKCRLQLGGLDYLDPACFTHSFH
- percentage of EdU-negative (MCF7; [2]): 26.2 ± 3.5%
- percentage of EdU-negative (MCF7; [3]): 26.4 ± 0.51%
- percentage of EdU-negative (hTERT-HMEC; [2]): 4.8 ± 0.32%
- percentage of EdU-negative (hTERT-HMEC; [3]): 5.37 ± 0.74%

Substance: O60486
- percentage of EdU-negative (MCF7; [4]): 23.37 ± 0.13%
- percentage of EdU-negative (MCF7; [5]): 26.9 ± 3%
- percentage of EdU-negative (hTERT-HMEC; [4]): 4.77 ± 0.19%
- percentage of EdU-negative (hTERT-HMEC; [5]): 10.8 ± 1%

Substance: MGTATRRKPHLLLVAAVALVSSSAWSSALGSQTTFGPVFEDQPLSVLFPEESTEEQVLLACRARASPPATYRWKMNGTEMKLEPGSRHQLVGGNLVIMNPTKAQDAGVYQCLASNPVGTVVSREAILRFGFLQEFSKEERDPVKAHEGWGVMLPCNPPAHYPGLSYRWLLNEFPNFIPTDGRHFVSQTTGNLYIARTNASDLGNYSCLATSHMDFSTKSVFSKFAQLNLAAEDTRLFAPSIKARFPAETYALVGQQVTLECFAFGNPVPRIKWRKVDGSLSPQWTTAEPTLQIPSVSFEDEGTYECEAENSKGRDTVQGRIIVQAQPEWLKVISDTEADIGSNLRWGCAAAGKPRPTVRWLRNGEPLASQNRVEVLAGDLRFSKLSLEDSGMYQCVAENKHGTIYASAELAVQALAPDFRLNPVRRLIPAARGGEILIPCQPRAAPKAVVLWSKGTEILVNSSRVTVTPDGTLIIRNISRSDEGKYTCFAENFMGKANSTGILSVRDATKITLAPSSADINLGDNLTLQCHASHDPTMDLTFTWTLDDFPIDFDKPGGHYRRTNVKETIGDLTILNAQLRHGGKYTCMAQTVVDSASKEATVLVRGPPGPPGGVVVRDIGDTTIQLSWSRGFDNHSPIAKYTLQARTPPAGKWKQVRTNPANIEGNAETAQVLGLTPWMDYEFRVIASNILGTGEPSGPSSKIRTREAAPSVAPSGLSGGGGAPGELIVNWTPMSREYQNGDGFGYLLSFRRQGSTHWQTARVPGADAQYFVYSNESVRPYTPFEVKIRSYNRRGDGPESLTALVYSAEEEPRVAPTKVWAKGVSSSEMNVTWEPVQQDMNGILLGYEIRYWKAGDKEAAADRVRTAGLDTSARVSGLHPNTKYHVTVRAYNRAGTGPASPSANATTMKPPPRRPPGNISWTFSSSSLSIKWDPVVPFRNESAVTGYKMLYQNDLHLTPTLHLTGKNWIEIPVPEDIGHALVQIRTTGPGGDGIPAEVHIVRNGGTSMMVENMAVRPAPHPGTVISHSVAMLILIGSLEL
- percentage of EdU-negative (MCF7; [6]): 24.5 ± 3%
- percentage of EdU-negative (MCF7; [7]): 25.1 ± 0.57%
- percentage of EdU-negative (hTERT-HMEC; [6]): 5.61 ± 0.96%
- percentage of EdU-negative (hTERT-HMEC; [7]): 5.98 ± 2%

Substance: MEPPGDWGPPPWRSTPKTDVLRLVLYLTFLGAPCYAPALPSCKEDEYPVGSECCPKCSPGYRVKEACGELTGTVCEPCPPGTYIAHLNGLSKCLQCQMCDPAMGLRASRNCSRTENAVCGCSPGHFCIVQDGDHCAACRAYATSSPGQRVQKGGTESQDTLCQNCPPGTFSPNGTLEECQHQTKCSWLVTKAGAGTSSSHWVWWFLSGSLVIVIVCSTVGLIICVKRRKPRGDVVKVIVSVQRKRQEAEGEATVIEALQAPPDVTTVAVEETIPSFTGRSPNH [F6Q0M4]
- percentage of EdU-negative (MCF7; [8]): 25.05 ± 0.09%
- percentage of EdU-negative (MCF7; [9]): 27.5 ± 1.3%
- percentage of EdU-negative (hTERT-HMEC; [8]): 5.28 ± 1.9%
- percentage of EdU-negative (hTERT-HMEC; [9]): 6.34 ± 0.056%

Substance: MRVSGVLRLLALIFAIVTTWMFIRSYMSFSMKTIRLPRWLAASPTKEIQVKKYKCGLIKPCPANYFAFKICSGAANVVGPTMCFEDRMIMSPVKNNVGRGLNIALVNGTTGAVLGQKAFDMYSGDVMHLVKFLKEIPGGALVLVASYDDPGTKMNDESRKLFSDLGSSYAKQLGFRDSWVFIGAKDLRGKSPFEQFLKNSPDTNKYEGWPELLEMEGCMPPKPF [Q96BQ1]
- percentage of EdU-negative (MCF7; [10]): 27.2 ± 0.94%
- percentage of EdU-negative (MCF7; [11]): 26.6 ± 1.5%
- percentage of EdU-negative (hTERT-HMEC; [10]): 5 ± 0.84%
- percentage of EdU-negative (hTERT-HMEC; [11]): 6.345 ± 0.041%

Substance: MKVTGIFLLSALALLSLSGNTGADSLGREAKCYNELNGCTKIYDPVCGTDGNTYPNECVLCFENRKRQTSILIQKSGPC
- percentage of EdU-negative (MCF7; [1]): 24 ± 0.32%
- percentage of EdU-negative (MCF7; protein concentration 0.225 µM): 25.6 ± 0.77%
- percentage of EdU-negative (hTERT-HMEC; [1]): 5.21 ± 1.1%
- percentage of EdU-negative (hTERT-HMEC; protein concentration 0.225 µM): 4.61 ± 0.16%
